Measurements taken from patent publication US7166454 (dated 2007).
Where no end group is shown, it is not given here.

Target: T1, refolded processed β-secretase (BACE) (human, UniProt P56817 43-454, limits assumed)
T1 construct: The processed preparation is an equimolar mixture of two species, LRLPRE; It is C-terminally truncated and lacks the transmembrane domain; It is not glycosylated; also called mamapsin 2
Experiment: X-ray structure coordinates of the complex

T1 sequence (P56817 43-454 limits assumed): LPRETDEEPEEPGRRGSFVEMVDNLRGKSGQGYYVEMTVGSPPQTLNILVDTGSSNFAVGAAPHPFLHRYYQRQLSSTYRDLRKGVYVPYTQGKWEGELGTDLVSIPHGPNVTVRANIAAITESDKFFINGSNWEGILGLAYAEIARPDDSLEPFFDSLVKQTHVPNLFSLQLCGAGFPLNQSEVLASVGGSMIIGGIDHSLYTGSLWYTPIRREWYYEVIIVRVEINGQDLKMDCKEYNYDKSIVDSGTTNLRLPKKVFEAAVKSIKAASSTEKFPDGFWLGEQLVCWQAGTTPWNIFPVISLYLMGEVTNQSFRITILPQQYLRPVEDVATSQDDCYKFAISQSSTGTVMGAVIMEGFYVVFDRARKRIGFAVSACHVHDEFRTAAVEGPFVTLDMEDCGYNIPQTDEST

B1: OM-99-2 (peptide)
peptide: EVNLAAEF
modifications: also: L4-A5 as hydroxyethylene isostere (2R,4S,5S)-5-amino-4-hydroxy-2,7-dimethyl-octanoyl
notes: also called Bachem catalog # H-5108
**Q.** Does B1 bind?
**A.** binds
